From patent US20240425579A1 come the findings set out here.

For test [1], the target named is T1, biotinylated hu-PDL2 (human) (UniProt Q9BQ51).
T1 sequence (biotinylated, looked up): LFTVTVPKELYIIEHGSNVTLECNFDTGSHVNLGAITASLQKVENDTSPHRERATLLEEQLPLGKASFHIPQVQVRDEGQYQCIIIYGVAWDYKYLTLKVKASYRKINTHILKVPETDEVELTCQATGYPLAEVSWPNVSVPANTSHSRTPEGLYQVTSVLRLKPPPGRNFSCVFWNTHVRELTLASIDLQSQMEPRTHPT
Kind of test: ELISA: construct coated at 1 µg/mL, varying biotinylated hu-PDL2, streptavidin-HRP.

For test [2], the target named is T1, biotinylated hu-PDL2 (human). The experiment in a line: ELISA: varying concentrations of construct coated, fixed biotinylated hu-PDL2 (500 ng/mL). A general note: An ELISA detects its analyte on a solid surface through an enzyme-linked reagent.

Chain of wild type PD1 construct (wild-type PD1 ECD comparator of anti-IL-23-PD1ecd) (heavy, part): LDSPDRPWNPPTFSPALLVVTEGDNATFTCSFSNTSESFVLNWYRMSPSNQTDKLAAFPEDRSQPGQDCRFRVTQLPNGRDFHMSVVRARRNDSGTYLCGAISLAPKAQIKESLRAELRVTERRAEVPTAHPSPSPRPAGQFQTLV

In the case of “wild type PD1 construct (wild-type PD1 ECD comparator of anti-IL-23-PD1ecd)”, the results for the EC50 in test [1] and in test [2] were 0.131 µM and 6 µM, respectively.
